Results reported in patent US20130122013A1 (Eli Lilly, published 2013).
Substitutions are numbered along the chain they refer to.

Legend:
human ferroportin 1 [1] = target: T1, human ferroportin 1 (human, UniProt Q9NP59 1-571); assay: inhibition of binding of 30 nM biotinylated hepcidin to FPN/293 cells, ELISA of lysate; antibody at 2000 nM; mean
T1 construct: also called human FPN1; FPN1
T1 sequence: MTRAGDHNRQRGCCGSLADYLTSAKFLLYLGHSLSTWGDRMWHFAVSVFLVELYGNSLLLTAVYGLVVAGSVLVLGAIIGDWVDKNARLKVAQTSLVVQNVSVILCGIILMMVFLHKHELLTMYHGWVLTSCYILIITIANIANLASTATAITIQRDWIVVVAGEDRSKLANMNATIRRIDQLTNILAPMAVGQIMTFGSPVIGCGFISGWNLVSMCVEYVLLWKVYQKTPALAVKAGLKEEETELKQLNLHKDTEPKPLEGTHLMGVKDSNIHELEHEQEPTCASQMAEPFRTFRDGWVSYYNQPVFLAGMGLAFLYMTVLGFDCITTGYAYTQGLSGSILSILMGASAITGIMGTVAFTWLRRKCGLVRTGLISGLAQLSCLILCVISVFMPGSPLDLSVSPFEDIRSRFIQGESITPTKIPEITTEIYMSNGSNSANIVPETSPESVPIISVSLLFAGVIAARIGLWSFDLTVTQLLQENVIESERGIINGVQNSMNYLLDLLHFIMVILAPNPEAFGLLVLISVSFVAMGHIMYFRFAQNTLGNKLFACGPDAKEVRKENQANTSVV
Experimental: (§1) Next, 65 μL of lysing buffer (0.5% Triton X-100, 10 mM EDTA) are added to all the wells and the plates are shaken for 10 minutes. Next, 50 μL of the solution in each well is transferred to individual wells of a streptavidin coated Greiner microtiter plate (60 μL of 2 μg/mL streptavidin (Sigma, St. Louis, Mo.; catalog no. S4762) in PBS, incubated at 4° C. overnight, washed 2 times (0.1% Tween 20, TBS), blocked with casein/PBS), and then incubated for one hour at room temperature. […] After incubating one hour at room temperature, the plate is washed 4× and 50 μL of OPD substrate (Sigma; catalog no. P6912) is added. The reaction is stopped with 100 μL 1 N HCl after 4 minutes. Absorbance at 490 nm (A₄₉₀) is read using an appropriate ELISA plate reader.

[2] = target: T2, human FPN1 C-terminally fused with GFP (human, UniProt Q9NP59 1-571, GFP reporter fused to the C-terminus ("FPN1 is C-terminally fused with GFP"). It is left out because the patent gives no letters for it.); assay: cell-based or functional assay
T2 sequence: T1 sequence

[3] = target: T2, human FPN1 C-terminally fused with GFP; assay: cell-based or functional assay; remark: listed apart in the source
human ferroportin 1 [4] = target: T1, human ferroportin 1; assay: inhibition of binding of 30 nM biotinylated hepcidin to FPN/293 cells, ELISA of lysate
Experimental: as §1

human ferroportin 1 [5] = target: T1, human ferroportin 1; assay: inhibition of binding of 30 nM biotinylated hepcidin to FPN/293 cells, ELISA of lysate; antibody at 7.8 nM; mean
Experimental: as §1

human ferroportin 1 [6] = target: T1, human ferroportin 1; assay: inhibition of binding of 30 nM biotinylated hepcidin to FPN/293 cells, ELISA of lysate; antibody at 500 nM; mean
Experimental: as §1

human ferroportin 1 [7] = target: T1, human ferroportin 1; assay: inhibition of binding of 30 nM biotinylated hepcidin to FPN/293 cells, ELISA of lysate; antibody at 125 nM; mean
Experimental: as §1

human ferroportin 1 [8] = target: T1, human ferroportin 1; assay: cell-based or functional assay
[9] = target: T2, human FPN1 C-terminally fused with GFP; assay: SPR, Biacore T100, 37 C, 1:1 model; FPN1-GFP captured from cell lysate on rabbit anti-GFP antibody, Mab injected
Experimental: (§2) The affinities of FPN1 binding Fabs and Mabs may be determined on Biacore T100 and using 1:1 binding model in the Biacore T100 evaluation software (BIAcore® AB, Upsala, Sweden). […] FPN1 is C-terminally fused with GFP. Expression of FPN1-GFP is induced by 1-10 ng/mL doxycycline for 1-24 hours. Induced cells are harvested by scraping off from flasks and then washed with 1×PBS. Cell pellets can be stored at −80° C. before use. About five million induced cells are resuspended in 10 mM phosphate buffer with 0.2% Tween-20 and protease inhibitors, e.g., Complete™ Protease Inhibitor Cocktail Tablet (Roche Diagnostics Corp., Indianapolis, Ind.). Three cycles of freeze/thaw/sonication are used to lyse the cells. The lysate is diluted two-fold with Biacore running buffer and centrifuged to remove debris.
(§3) On Biacore T100, rabbit anti-GFP antibody or goat anti-GFP antibody is immobilized onto flow cell 1 to 4 of a CMS chip at 5000-15000 Rus. FPN1-GFP is captured onto flow cell 2, 3, or 4 from the lysate of induced cells. Flow cell 1 is used as reference. Then all flow cells are injected with different concentrations of antibodies to evaluate the binding and kinetics.

human ferroportin 1 [10] = target: T1, human ferroportin 1; assay: inhibition of binding of 30 nM biotinylated hepcidin to FPN/293 cells, ELISA of lysate; antibody at 31.25 nM; mean
Experimental: as §1

[11] = target: T2, human FPN1 C-terminally fused with GFP; assay: SPR, Biacore T100, 25 C, 1:1 model; FPN1-GFP captured from cell lysate on rabbit anti-GFP antibody, Mab injected
Experimental: as §2, §3

peptide 0708L4D = target: T3, peptide 0708L4D (human); assay: dot blot: peptide spotted on nitrocellulose, probed with Mab 34A9, IR700-labeled goat anti-mouse detection
T3 peptide: GGRSRFIQGESITPTKGC
Experimental: (§4) For each peptide, 3 μl of 1-5 μg/mL peptide is spotted onto a piece of nitrocellulose membrane and air dried. The membrane is blocked with blocking buffer (e.g., PBS containing 1% BSA), then incubated with 3-5 μg/mL FPN1 antibody in blocking buffer at room temperature for an hour. The membrane is washed three times, 5 min each, with 1×PBST (10 mM sodium phosphate, 150 mM NaCl, 0.1% Tween-20, pH 7.4) before it is incubated with IR700-labeled-Goat-anti-Mouse antibody according to manufacturer's protocol (LiCor, Inc; Lincoln, Nebr.). The membrane is washed three times, five minutes each, with 1×PBST, is imaged on Odyssey imaging system and Odyssey software (LiCor, Inc).

peptide 0708L4C = target: T4, peptide 0708L4C (human); assay: as above
T4 peptide: GGEDIRSRFIQGESITGC
Experimental: as §4

peptide 060719Z = target: T5, peptide 060719Z (human); assay: as above
T5 peptide: GGSPFEDIRSRFIQGC
Experimental: as §4

peptide FpnE3a = target: T6, peptide FpnE3a (human); assay: as above
T6 peptide: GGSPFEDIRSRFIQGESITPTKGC
Experimental: as §4

[12] = target: T2, human FPN1 C-terminally fused with GFP; assay: SPR, Biacore T100, 37 C, 1:1 model; FPN1-GFP captured from cell lysate on rabbit anti-GFP antibody, Fab injected
Experimental: as §2, §3

[13] = target: T2, human FPN1 C-terminally fused with GFP; assay: SPR, Biacore T100, 37 C, 1:1 model; FPN1-GFP captured from cell lysate on goat anti-GFP antibody, Fab injected; n = 4
Experimental: as §2, §3

[14] = target: T2, human FPN1 C-terminally fused with GFP; assay: SPR, Biacore T100, 37 C; KD of Fab 1G9 against KD of Fab 34A9 (Table 4(a))
Text: The affinities of FPN1 binding Fabs and Mabs may be determined on Biacore T100 and using 1:1 binding model in the Biacore T100 evaluation software (BIAcore® AB, Upsala, Sweden). Briefly, the T-REx system, a commercially available tetracycline-regulated expression system without viral transactivators (Invitrogen, Carlsbad, Calif.) is used for stable cell line generation in T-Rex HEK 293 cells. All growth conditions are described in the T-REx manual provided by Invitrogen. FPN1 is C-terminally fused with GFP. Expression of FPN1-GFP is induced by 1-10 ng/mL doxycycline for 1-24 hours. Induced cells are harvested by scraping off from flasks and then washed with 1×PBS. Cell pellets can be stored at −80° C. before use. About five million induced cells are resuspended in 10 mM phosphate buffer with 0.2% Tween-20 and protease inhibitors, e.g., Complete™ Protease Inhibitor Cocktail Tablet (Roche Diagnostics Corp., Indianapolis, Ind.). Three cycles of freeze/thaw/sonication are used to lyse the cells. The lysate is diluted two-fold with Biacore running buffer and centrifuged to remove debris.
On Biacore T100, rabbit anti-GFP antibody or goat anti-GFP antibody is immobilized onto flow cell 1 to 4 of a CMS chip at 5000-15000 Rus. FPN1-GFP is captured onto flow cell 2, 3, or 4 from the lysate of induced cells. Flow cell 1 is used as reference. […]

B1: Mab 3D8 (antibody, human IgG4 S228P, kappa, F234A L235A, V domains shown)
VH: QVQLVQSGAEVKKPGSSVKVSCKASGYAFTSFLIEWVRQAPGQGLEWMGTSNPRTGGTKYKEKFRGRVTITADKSTSTAYMELSSLRSEDTAVYYCAREFFDYWGQGTTVTVSS
VL: DIQMTQSPSSLSASVGDRVTITCRASKSISKYTAWYQQKPGKAPKLLIYAGSKLHSGVPSRFSGSGSGTDFTLTISSLQPEDFATYYCQQHNEYPYTFGGGTKVEIKR
notes: Humanized form of mouse 1G9 with human heavy chain framework VH1-69 and light chain framework O2; also called human 3D8
- % Inhibition (human ferroportin 1 [1]): 54.7%
- Absolute IC50 of inhibition of hepcidin-25-induced internalization and degradation of FPN1-GFP [2]: 13.7 nM
- Relative IC50 of inhibition of hepcidin-25-induced internalization and degradation of FPN1-GFP [2]: 10.2 nM
- Top % Inhibition of hepcidin-25-induced internalization and degradation of FPN1-GFP [2]: 86.8%
- Percent (%) Inhibition of Mature Human Hepcidin-induced Internalization and Degradation, Mab at 7.4 nM [3]: 28.1%
- Percent (%) Inhibition of Mature Human Hepcidin-induced Internalization and Degradation, Mab at 22 nM [3]: 50.2%
- Percent (%) Inhibition of Mature Human Hepcidin-induced Internalization and Degradation, Mab at 67 nM [3]: 55.7%
- Percent (%) Inhibition of Mature Human Hepcidin-induced Internalization and Degradation, Mab at 200 nM [3]: 63.8%
- Percent (%) Inhibition of Mature Human Hepcidin-induced Internalization and Degradation, Mab at 600 nM [3]: 66.4%
- IC50 (human ferroportin 1 [4]): ~400 nM
- % Inhibition (human ferroportin 1 [5]): -2.8%
- % Inhibition (human ferroportin 1 [6]): 64.7%
- % Inhibition (human ferroportin 1 [7]): 21.8%
- EC50 of inhibition of mature hepcidin induced increase in cellular ferritin, Caco-2 cells (human ferroportin 1 [8]): 360 nM
- Percentage inhibition of mature hepcidin induced increase in cellular ferritin, Caco-2 cells, Mab at 2.22E-7 M (human ferroportin 1 [8]): 25.2%
- Percentage inhibition of mature hepcidin induced increase in cellular ferritin, Caco-2 cells, Mab at 2.47E-8 M (human ferroportin 1 [8]): 3.4%
- Percentage inhibition of mature hepcidin induced increase in cellular ferritin, Caco-2 cells, Mab at 2.7E-9 M (human ferroportin 1 [8]): 10.6%
- Percentage inhibition of mature hepcidin induced increase in cellular ferritin, Caco-2 cells, Mab at 3.0E-10 M (human ferroportin 1 [8]): 7.3%
- Percentage inhibition of mature hepcidin induced increase in cellular ferritin, Caco-2 cells, Mab at 6.67E-7 M (human ferroportin 1 [8]): 29.8%
- Percentage inhibition of mature hepcidin induced increase in cellular ferritin, Caco-2 cells, Mab at 7.4E-8 M (human ferroportin 1 [8]): 12%
- Percentage inhibition of mature hepcidin induced increase in cellular ferritin, Caco-2 cells, Mab at 8.0E-9 M (human ferroportin 1 [8]): 14.9%
- Percentage inhibition of mature hepcidin induced increase in cellular ferritin, Caco-2 cells, Mab at 9.0E-10 M (human ferroportin 1 [8]): 8.6%
- Kd [9]: 3.37 nM
- koff [9]: 0.0011 s⁻¹
- kon [9]: 325000 M⁻¹ s⁻¹
- % Inhibition (human ferroportin 1 [10]): 4%

B2: Mab 34A9 (antibody, mouse IgG1, kappa, V domains shown)
VH: QVQLKQSGAELVRPGTSVKVSCKASGYAFTNFLIEWLKQRPGQGLEWIGTINPETGGTKYNEKFRGKATLTADKSSSTAYMQLNSLTSDDSAVYFCVREFFDYWGQGTSLTVSS
VL: ETTVTQSPSYLAASPGETITINCRASKSISKYLAWFQEKPGKTNKLLIYAGSTLHSGIPSRFSGSGSGTDFTLTISSLEPEDFAMYYCQQHNEYPYTFGGGTKLELKR
notes: Mouse monoclonal antibody against human FPN1; also called mouse 34A9; mouse Mab 34A9
- Kd [11]: 1.18 nM
- koff [11]: 8.16e-05 s⁻¹
- kon [11]: 69000 M⁻¹ s⁻¹
- Relative IC50 of inhibition of hepcidin-25-induced internalization and degradation of FPN1-GFP [2]: 58.9 nM
- Top % Inhibition of hepcidin-25-induced internalization and degradation of FPN1-GFP [2]: 55.2%
- Percent (%) Inhibition of Mature Human Hepcidin-induced Internalization and Degradation, Mab at 7.4 nM [3]: 4.8%
- Percent (%) Inhibition of Mature Human Hepcidin-induced Internalization and Degradation, Mab at 22 nM [3]: 14.1%
- Percent (%) Inhibition of Mature Human Hepcidin-induced Internalization and Degradation, Mab at 67 nM [3]: 23.6%
- Percent (%) Inhibition of Mature Human Hepcidin-induced Internalization and Degradation, Mab at 200 nM [3]: 30.8%
- Percent (%) Inhibition of Mature Human Hepcidin-induced Internalization and Degradation, Mab at 600 nM [3]: 39%
- binding result (peptide 0708L4D): binds
- binding result (peptide 0708L4C): binds
- binding result (peptide 060719Z): binds
- binding result (peptide FpnE3a): binds

B3: Fab 1G9 (Fab, V domains shown)
VH: B2 VH with N31S, E54R
VL: ETTVTQSPSYLAASPGETITINCRASKSISKYLAWFQEKPGKTNKLLIYAGSKLHSGIPSRFSGSGSGTDFTLTISSLEPEDFAMYYCFQHNEYPYTFGGGTKLELK
notes: also called mouse 1G9; mouse Fab 1G9
- Kd [12]: 7.71 nM
- koff [12]: 0.000897 s⁻¹
- kon [12]: 127000 M⁻¹ s⁻¹
- Kd [13]: 2.9 nM
- koff [13]: 0.000497 s⁻¹
- kon [13]: 173000 M⁻¹ s⁻¹
- fold improvement in binding affinity over mouse Fab 34A9 [14]: ~5 fold
